Test results taken from patent publication US20190194310A1 (NUMAB INNOVATION, published 2019).

B1: humanized scFv 16-02-B03-sc02 (scFv)
scFv: MDIQMTQSPSSLSASVGDRVTITCQSSQSVYSSNLAWYQQKPGKAPKLLIYSASKLASGVPSRFSGSGSGTDFTLTISSLQPEDEATYYCQGTYYTSNWLNAFGGGTKLTVLGGGGGSGGGGSGGGGSGGGGSEVQLVESGGGLVQPGGSLRLSCAASGIDLSSYAMGWVRQAPGKGLEWIGTISVGGSTYYANWAEGRFTISRDNSKNTVYLQMNSLRAEDTAVYYCAGGDYINFFYFNIWGQGTLVTVSS
notes: CDR graft on a Vκ1/VH3 scaffold; also called 16-02-B03-sc02 (CDR); 16-02-B03-sc02-scFv
B2: recombinant human TNFβ (ligand, UniProt P01374 35-205, looked up)
chain: LPGVGLTPSAAQTARQHPKMHLAHSTLKPAAHLIGDPSKQNSLLWRANTDRAFLQDGFSLSNNSLLVPTSGIYFVYSQVVFSGKAYSPKATSSPLYLAHEVQLFSSQYPFHVPLLSSQKMVYPGLQEPWLHSMYHGAAFQLTQGDQLSTHTDGIPHLVLSPSTVFFGAFAL

Legend:
Rhesus monkey TNFα [1] = target: T1, Rhesus monkey TNFα (Rhesus monkey (Macaca mulatta), UniProt P48094 77-233); test: cell-based or functional assay
T1 sequence (P48094 77-233 limits assumed): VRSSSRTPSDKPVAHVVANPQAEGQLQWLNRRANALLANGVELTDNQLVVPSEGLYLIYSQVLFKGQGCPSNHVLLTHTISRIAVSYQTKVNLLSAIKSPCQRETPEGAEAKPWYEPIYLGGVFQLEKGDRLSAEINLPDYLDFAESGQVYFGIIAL

recombinant human TNFα [2] = target: T2, recombinant human TNFα (human, UniProt P01375 77-233); test: cell-based or functional assay
T2 sequence (P01375 77-233 limits assumed): as the sequence (P48094 77-233 limits assumed) above, with T44R, N72T, L138R counted along it

[3] = target: T3, recombinant Cynomolgus monkey TNFα (Cynomolgus monkey (Macaca fascicularis), UniProt P79337 77-233); test: cell-based or functional assay
T3 sequence (P79337 77-233 limits assumed): as the sequence (P48094 77-233 limits assumed) above, with L37V counted along it

recombinant human TNFα [4] = target: T2, recombinant human TNFα; test: inhibition ELISA; biotinylated TNFα 960 pM pre-incubated with scFv; competitor TNFRI-Fc coated
recombinant human TNFβ = target: B2; test: competition ELISA: scFv coated, biotinylated TNFα, unlabeled TNFβ as competitor
Method: To control precision of the response, the dose-response curves was analyzed in duplicate.

recombinant human TNFα [5] = target: T2, recombinant human TNFα; test: inhibition ELISA; biotinylated TNFα 960 pM pre-incubated with scFv; competitor TNFRII-Fc coated
Method: For the second inhibition ELISA, the extracellular domain of TNFRII fused to the Fc region of human IgG (R&D Systems, Cat. No. 726-R2) was coated at a concentration of 2 μg/mL. All subsequent steps were identical for both assays.

Rhesus monkey TNFα [6] = target: T1, Rhesus monkey TNFα; test: SPR (MASS-1); TNFα amine-coupled on chip, scFv injected 45-1.4 nM
Method: (§1) In a second step, Single Injection Cycle Kinetics (SiCK) were measured from a single injection cycle by simultaneously injecting six analyte samples at different concentrations into each of the eight parallel channels in the MASS-1 system. […] The apparent dissociation (kd) and association (kₐ) rate constants and the apparent dissociation equilibrium constant (KD) were calculated with the MASS-1 analysis software (Analyzer, Sierra Sensors) using one-to-one Langmuir binding model and quality of the fits was monitored based on Chi², which is a measure for the quality of the curve fitting. The smaller the value for the Chi² the more accurate is the fitting to the one-to-one Langmuir binding model. For affinity screenings, results were deemed valid if the Chi² was below 10 for the concentration analyzed. In cases where several scFv concentrations were analyzed, results were deemed valid if the average Chi² over all the concentrations tested was below 10.

recombinant human TNFα [7] = target: T2, recombinant human TNFα; test: as above
Method: as §1

[8] = target: T3, recombinant Cynomolgus monkey TNFα; test: as above
Method: as §1

[9] = target: B1; test: competition ELISA: scFv coated, biotinylated TNFα 75 ng/mL, unlabeled TNFβ as competitor
From the text: (§2) The quality of recombinant human TNFβ has been analyzed 1) for purity by SDS-page and HPLC analysis, and 2) for biological activity in the mouse L929 cytotoxicity assay, by the manufacturer of the protein.

[10] = target: B1; test: competition ELISA: scFv coated, biotinylated TNFα, unlabeled TNFβ or TNFα as competitor
From the text: as §2

In the case of B1, the “Species-specificity IC50 [ng/mL], rhesus (L929 assay)” value (Rhesus monkey TNFα [1]) is reported as 71.8 ng/mL, the “Potency (L929 assay), rel. IC50 (IC50,Infliximab/IC50,scFv, ng/mL)” value (recombinant human TNFα [2]) is reported as 1.7 and the “Species-specificity IC50 [ng/mL], human (L929 assay)” value (recombinant human TNFα [2]) is reported as 6.9 ng/mL. The “Species-specificity IC50 [ng/mL], cyno (L929 assay)” value [3] was 99.3 ng/mL, the IC50 (recombinant human TNFα [4]) was 0.0737 µg/mL and the binding result (recombinant human TNFβ) was “no binding (tested: 1250 µg/mL)”. For the same binder, the IC50 (recombinant human TNFα [5]) was 0.0795 µg/mL, the Kd (Rhesus monkey TNFα [6]) was 1.6 nM and the koff (Rhesus monkey TNFα [6]) was 0.00022 s⁻¹. For the same binder, the kon (Rhesus monkey TNFα [6]) was 130000 M⁻¹ s⁻¹, the Kd (recombinant human TNFα [7]) was 0.16 nM and the koff (recombinant human TNFα [7]) was 6.6e-05 s⁻¹. For the same binder, the kon (recombinant human TNFα [7]) was 410000 M⁻¹ s⁻¹, the Kd [8] was 1.1 nM and the koff [8] was 0.00021 s⁻¹. The kon [8] was 180000 M⁻¹ s⁻¹.

With B2 the IC50 [9] was greater than 1250 µg/mL and the “Target selectivity, rel. IC50 of TNFβ vs TNFα” value [10] was greater than 10000 fold.
